Test results: patent EP4063498B1
Residue numbers refer to the chain shown, from its start.

B1: antibody HB12 (antibody, V domains shown)
VH: VQLQQSGAELVKPGASVKLSCKTSGYTFTSYWMYWVKQRPGQGLEWIGEIYPTNGRTNYNEKFKTKATLTVDKSSSTAYMQLSSLTSEDSAVYYCAIYYYGSYAMDYWGQGTSVTVSS
VL: DIVMTQSHKFMSTSVGDRVSITCKASQDVSIAVAWFQQKPGQSPKLLIYWASTRHTGVPDRFTGSGSGTDYTLTISSVQAEDLALYYCQQHYSTPYLFGGGTKLEIKR
B2: antibody FA2 (antibody, V domains shown)
VH: VQLKQSGPGLVQPSQSLSITCTVSGFSLTSYGVHWVRRSPGKGLEWLGVIWRGGNTDYNAAFMSRLSITKDNSKSQVFFKMTSLQGDDTAIYSCVKSLTTSTFDYWGQGTLVTVSS
VL: B1 VL with F10L, A25G, S30R, I31T, F36Y, K45N, T72I, S76T, T94I, L97T

Biological target: OXA-23-type carbapenemase (UniProt Q9L4P2)
Assay: indirect ELISA, plate coated with OXA-23-type carbapenemase at 0.2 ug/mL, serial dilution of purified antibody from 1:1,000
Conditions: scale: dilution factor

Chain of UniProt Q9L4P2 (Q9L4P2 18-273 limits assumed): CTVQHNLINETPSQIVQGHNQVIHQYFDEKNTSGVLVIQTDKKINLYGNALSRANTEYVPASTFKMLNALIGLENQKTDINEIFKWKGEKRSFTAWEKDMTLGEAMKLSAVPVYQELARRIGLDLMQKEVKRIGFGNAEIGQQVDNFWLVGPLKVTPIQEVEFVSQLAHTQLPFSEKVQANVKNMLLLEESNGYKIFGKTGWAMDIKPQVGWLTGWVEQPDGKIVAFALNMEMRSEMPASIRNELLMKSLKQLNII

Row | Binder | titer
1 | B1 | > 640000
2 | B2 | > 640000
